The results in this text go back to paper PMC7596997.

Experiment [1] has as its target cytosolic domain of yeast Tom70 (His-Tom70_(38–617)) (yeast (Saccharomyces cerevisiae)) (UniProt P07213). As to the kind of experiment: pull-down; purified His-Tom70cd (50 pmol per 100 μl) pre-bound to Ni-NTA beads, incubated 40 min at 30 °C with typically 7% (v/v) reticulocyte lysate containing the [35S]-labelled protein; 10 mM MOPS/KOH, 20 mM imidazole, 150 mM KCl, 1% BSA, pH 7.2; eluted with 1 M imidazole, SDS-PAGE, phosphorimager; in some samples the bead-bound Tom70cd was pretreated with NEM and washed before the lysate was added.

For experiment [2], the target named is Tom70cd pretreated with N-ethylmaleimide (NEM) (yeast (Saccharomyces cerevisiae)) (UniProt P07213). The description is as above.
For experiment [3], the target named is Tom70 in the outer membrane of isolated yeast mitochondria (wild type) (S. cerevisiae (endogenous in isolated yeast mitochondria)) (UniProt P07213).
Sequence of Tom70 in the outer membrane of isolated yeast mitochondria (wild type) (S. cerevisiae (endogenous in isolated yeast mitochondria)) (P07213 whole entry): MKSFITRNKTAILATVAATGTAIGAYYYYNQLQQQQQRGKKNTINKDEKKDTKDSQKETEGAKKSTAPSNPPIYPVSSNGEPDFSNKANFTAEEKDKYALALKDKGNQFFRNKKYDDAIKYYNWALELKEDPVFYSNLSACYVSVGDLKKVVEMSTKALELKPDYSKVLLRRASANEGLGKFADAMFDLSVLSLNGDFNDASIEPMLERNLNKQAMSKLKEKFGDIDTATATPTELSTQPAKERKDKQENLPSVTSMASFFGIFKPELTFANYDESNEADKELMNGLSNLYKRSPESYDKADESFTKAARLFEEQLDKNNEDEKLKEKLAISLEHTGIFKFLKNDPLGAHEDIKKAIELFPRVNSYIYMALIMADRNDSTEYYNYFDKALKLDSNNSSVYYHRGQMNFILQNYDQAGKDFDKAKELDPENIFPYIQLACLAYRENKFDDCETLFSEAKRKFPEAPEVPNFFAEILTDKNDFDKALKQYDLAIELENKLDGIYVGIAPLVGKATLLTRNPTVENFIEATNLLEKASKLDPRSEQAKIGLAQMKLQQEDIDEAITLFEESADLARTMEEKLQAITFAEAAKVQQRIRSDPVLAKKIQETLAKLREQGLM

Sequence of cytosolic domain of yeast Tom70 (His-Tom70_(38–617)) (yeast (Saccharomyces cerevisiae)) (P07213 38-617): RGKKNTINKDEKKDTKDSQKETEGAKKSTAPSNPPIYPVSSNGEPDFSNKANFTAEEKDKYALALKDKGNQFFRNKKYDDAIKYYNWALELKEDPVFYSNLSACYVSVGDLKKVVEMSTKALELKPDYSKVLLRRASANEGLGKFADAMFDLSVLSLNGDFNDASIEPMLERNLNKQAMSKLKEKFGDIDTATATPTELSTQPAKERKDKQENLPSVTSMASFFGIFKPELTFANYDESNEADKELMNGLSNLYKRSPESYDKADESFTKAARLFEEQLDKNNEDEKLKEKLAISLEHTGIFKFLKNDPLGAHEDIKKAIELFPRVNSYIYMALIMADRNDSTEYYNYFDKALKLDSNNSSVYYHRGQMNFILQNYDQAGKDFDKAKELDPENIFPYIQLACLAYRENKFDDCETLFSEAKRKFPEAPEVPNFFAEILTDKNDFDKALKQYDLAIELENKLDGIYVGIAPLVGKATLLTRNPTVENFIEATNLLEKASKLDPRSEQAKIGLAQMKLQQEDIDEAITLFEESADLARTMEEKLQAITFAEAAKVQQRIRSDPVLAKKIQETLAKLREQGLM
Sequence of AAC_(Δpos) (AAC with all positively charged residues of the matrix loops exchanged against glycine) (P02723 whole entry, stated change not applied): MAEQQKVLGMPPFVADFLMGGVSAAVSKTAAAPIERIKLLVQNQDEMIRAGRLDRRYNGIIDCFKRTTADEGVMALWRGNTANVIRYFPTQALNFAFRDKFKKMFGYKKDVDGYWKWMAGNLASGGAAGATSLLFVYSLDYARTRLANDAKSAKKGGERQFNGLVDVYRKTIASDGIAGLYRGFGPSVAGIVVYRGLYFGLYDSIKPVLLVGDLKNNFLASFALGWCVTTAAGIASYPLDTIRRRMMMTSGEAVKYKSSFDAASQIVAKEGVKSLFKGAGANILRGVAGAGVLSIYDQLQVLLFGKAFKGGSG
Sequence of Tom70cd pretreated with N-ethylmaleimide (NEM) (yeast (Saccharomyces cerevisiae)) (P07213 38-617): as the sequence (P07213 38-617) above
Sequence of ADP/ATP carrier (AAC) of Neurospora crassa, wild type (P02723 whole entry): as the sequence (P02723 whole entry, stated change not applied) above
Sequence of S. cerevisiae AAC2 (P18239 whole entry): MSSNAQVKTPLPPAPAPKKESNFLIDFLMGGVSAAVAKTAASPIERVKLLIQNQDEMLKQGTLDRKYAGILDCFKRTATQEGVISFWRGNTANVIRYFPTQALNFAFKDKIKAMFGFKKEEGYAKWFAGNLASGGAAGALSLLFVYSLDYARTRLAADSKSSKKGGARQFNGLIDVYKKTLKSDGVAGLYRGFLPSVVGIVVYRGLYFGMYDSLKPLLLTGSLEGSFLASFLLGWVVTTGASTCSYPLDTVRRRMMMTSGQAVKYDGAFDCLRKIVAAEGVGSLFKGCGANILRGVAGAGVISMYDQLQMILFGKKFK

On to “AAC_(Δpos) (AAC with all positively charged residues of the matrix loops exchanged against glycine) (from UniProt P02723 1-313) (natural protein)”, for which, in experiment [1], the percent of the total radiolabelled protein bound was in the range of 15 to 20%. In the case of “ADP/ATP carrier (AAC) of Neurospora crassa, wild type (from UniProt P02723 1-313) (natural protein)”, in experiment [2], the reduction of the binding efficiency against untreated Tom70cd was found to be 50%. On to “S. cerevisiae AAC2 (from UniProt P18239 1-318) (natural protein)”, for which the decrease in binding of [35S]-AAC2 to isolated mitochondria containing wild type Tom70, pretreated with 2 mM NEM against untreated (Fig. 3f) in experiment [3] was 50%.
